# Measured values published in IntAct's records for PubMed 27524201.
# B1: Kremen protein 1 (Homo sapiens), Q96MU8 (parent)
# chain: MAPPAARLALLSAAALTLAARPAPSPGLGPECFTANGADYRGTQNWTALQGGKPCLFWNETFQHPYNTLKYPNGEGGLGEHNYCRNPDGDVSPWCYVAEHEDGVYWKYCEIPACQMPGNLGCYKDHGNPPPLTGTSKTSNKLTIQTCISFCRSQRFKFAGMESGYACFCGNNPDYWKYGEAASTECNSVCFGDHTQPCGGDGRIILFDTLVGACGGNYSAMSSVVYSPDFPDTYATGRVCYWTIRVPGASHIHFSFPLFDIRDSADMVELLDGYTHRVLARFHGRSRPPLSFNVSLDFVILYFFSDRINQAQGFAVLYQAVKEELPQERPAVNQTVAEVITEQANLSVSAARSSKVLYVITTSPSHPPQTVPGSNSWAPPMGAGSHRVEGWTVYGLATLLILTVTAIVAKILLHVTFKSHRVPASGDLRDCHQPGTSGEIWSIFYKPSTSISIFKKKLKGQSQQDDRNPLVSD
# partner: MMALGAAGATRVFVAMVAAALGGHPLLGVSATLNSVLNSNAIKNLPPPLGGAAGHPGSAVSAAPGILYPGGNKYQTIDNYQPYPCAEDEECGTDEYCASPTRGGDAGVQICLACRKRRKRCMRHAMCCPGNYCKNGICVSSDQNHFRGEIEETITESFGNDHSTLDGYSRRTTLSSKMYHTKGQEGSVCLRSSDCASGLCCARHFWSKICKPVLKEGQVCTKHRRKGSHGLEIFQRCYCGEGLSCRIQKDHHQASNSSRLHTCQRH
# B2: Kremen protein 1 (Homo sapiens), Q96MU8 (parent)
# chain: B1 chain
# Variants of: B1
# Conditions: with dkk1_human DKK1, O94907
row,effect of a mutation on the interaction,Variant
1,disrupting interaction strength,MAPPAARLALLSAAALTLAARPAPSPGLGPECFTANGADYRGTQNWTALQGGKPCLFWNETFQHPYNTLKYPNGEGGLGEHNYCRNPDGDVSPWCYVAEHEDGVYWKYCEIPACQMPGNLGCYKDHGNPPPLTGTSKTSNKLTIQTCISFCRSQRFKFAGMESGYACFCGNNPDYWKYGEAASTECNSVCFGDHTQPCGGDGRIILFDTLVGACGGNYSAMSSVVYSPDFPDTYATGRVCYWTIRVPGASHIHFSFPLFDIRDSADMVELLDGYTHRVLARFHGRSRPPLSFNVSLDFVILYFFSDRINQSQGFAVLYQAVKEELPQERPAVNQTVAEVITEQANLSVSAARSSKVLYVITTSPSHPPQTVPGSNSWAPPMGAGSHRVEGWTVYGLATLLILTVTAIVAKILLHVTFKSHRVPASGDLRDCHQPGTSGEIWSIFYKPSTSISIFKKKLKGQSQQDDRNPLVSD [A311S]
2,disrupting interaction strength,MAPPAARLALLSAAALTLAARPAPSPGLGPECFTANGADYRGTQNWTALQGGKPCLFWNETFQHPYNTLKYPNGEGGLGEHNYCRNPDGNVSPWCYVAEHEDGVYWKYCEIPACQMPGNLGCYKDHGNPPPLTGTSKTSNKLTIQTCISFCRSQRFKFAGMESGYACFCGNNPDYWKYGEAASTECNSVCFGDHTQPCGGDGRIILFDTLVGACGGNYSAMSSVVYSPDFPDTYATGRVCYWTIRVPGASHIHFSFPLFDIRDSADMVELLDGYTHRVLARFHGRSRPPLSFNVSLDFVILYFFSDRINQAQGFAVLYQAVKEELPQERPAVNQTVAEVITEQANLSVSAARSSKVLYVITTSPSHPPQTVPGSNSWAPPMGAGSHRVEGWTVYGLATLLILTVTAIVAKILLHVTFKSHRVPASGDLRDCHQPGTSGEIWSIFYKPSTSISIFKKKLKGQSQQDDRNPLVSD [D90N]
3,disrupting interaction strength,MAPPAARLALLSAAALTLAARPAPSPGLGPECFTANGADYRGTQNWTALQGGKPCLFWNETFQHPYNTLKYPNGEGGLGEHNYCRNPDGDVSPWCYVAEHEDGVYWKYCEIPACQMPGNLGCYKDHGNPPPLTGTSKTSNKLTIQTCISFCRSQRFKFAGMESGYACFCGNNPDYWKYGEAASTECNSNCSGDHTQPCGGDGRIILFDTLVGACGGNYSAMSSVVYSPDFPDTYATGRVCYWTIRVPGASHIHFSFPLFDIRDSADMVELLDGYTHRVLARFHGRSRPPLSFNVSLDFVILYFFSDRINQAQGFAVLYQAVKEELPQERPAVNQTVAEVITEQANLSVSAARSSKVLYVITTSPSHPPQTVPGSNSWAPPMGAGSHRVEGWTVYGLATLLILTVTAIVAKILLHVTFKSHRVPASGDLRDCHQPGTSGEIWSIFYKPSTSISIFKKKLKGQSQQDDRNPLVSD [V189N;F191S]

# Variants of: B2
# Conditions: with lrp6_human LRP6, O75581
# Chain of lrp6_human LRP6, O75581 (O75581 whole entry): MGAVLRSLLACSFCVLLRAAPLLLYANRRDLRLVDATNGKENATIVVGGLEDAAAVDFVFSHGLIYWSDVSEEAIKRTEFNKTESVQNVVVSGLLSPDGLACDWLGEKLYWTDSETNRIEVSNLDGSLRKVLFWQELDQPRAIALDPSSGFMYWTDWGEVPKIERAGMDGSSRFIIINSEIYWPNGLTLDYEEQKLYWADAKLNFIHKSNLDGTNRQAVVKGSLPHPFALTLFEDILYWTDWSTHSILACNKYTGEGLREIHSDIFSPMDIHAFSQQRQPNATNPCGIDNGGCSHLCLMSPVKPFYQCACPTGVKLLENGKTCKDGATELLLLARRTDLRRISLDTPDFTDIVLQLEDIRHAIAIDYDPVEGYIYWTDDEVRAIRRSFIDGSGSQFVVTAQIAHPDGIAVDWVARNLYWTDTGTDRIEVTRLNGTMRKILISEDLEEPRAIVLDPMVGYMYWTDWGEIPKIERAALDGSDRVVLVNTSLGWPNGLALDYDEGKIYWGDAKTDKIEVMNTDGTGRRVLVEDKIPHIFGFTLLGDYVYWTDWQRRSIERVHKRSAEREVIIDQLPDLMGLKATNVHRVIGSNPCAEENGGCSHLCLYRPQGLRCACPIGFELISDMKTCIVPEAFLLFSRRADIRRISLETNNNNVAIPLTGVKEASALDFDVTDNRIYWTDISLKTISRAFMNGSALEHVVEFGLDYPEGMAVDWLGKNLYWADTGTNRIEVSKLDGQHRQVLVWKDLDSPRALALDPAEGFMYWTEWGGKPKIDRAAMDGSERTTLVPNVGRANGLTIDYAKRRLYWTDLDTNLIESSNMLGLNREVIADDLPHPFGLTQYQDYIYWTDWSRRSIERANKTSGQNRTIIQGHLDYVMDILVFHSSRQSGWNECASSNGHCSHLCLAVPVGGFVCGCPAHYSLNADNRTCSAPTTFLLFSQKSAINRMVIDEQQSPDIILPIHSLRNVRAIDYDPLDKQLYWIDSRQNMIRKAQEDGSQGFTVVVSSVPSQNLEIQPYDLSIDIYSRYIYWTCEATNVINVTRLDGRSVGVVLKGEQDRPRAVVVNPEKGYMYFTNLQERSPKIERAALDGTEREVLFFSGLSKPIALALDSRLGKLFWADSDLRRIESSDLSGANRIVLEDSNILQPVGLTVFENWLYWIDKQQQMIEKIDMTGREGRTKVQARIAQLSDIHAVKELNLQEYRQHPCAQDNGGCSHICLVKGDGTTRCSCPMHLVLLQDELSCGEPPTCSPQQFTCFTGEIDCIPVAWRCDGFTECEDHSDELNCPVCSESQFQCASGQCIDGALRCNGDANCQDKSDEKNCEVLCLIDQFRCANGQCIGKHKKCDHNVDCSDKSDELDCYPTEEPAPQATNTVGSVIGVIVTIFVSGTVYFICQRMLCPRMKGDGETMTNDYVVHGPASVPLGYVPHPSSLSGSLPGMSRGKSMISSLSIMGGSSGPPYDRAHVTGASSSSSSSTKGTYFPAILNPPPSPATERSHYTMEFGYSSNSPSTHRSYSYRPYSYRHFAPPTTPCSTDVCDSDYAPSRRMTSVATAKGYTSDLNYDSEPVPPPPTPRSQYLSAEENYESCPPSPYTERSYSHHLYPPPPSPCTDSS
row,effect of a mutation on the interaction,Variant
1,disrupting interaction strength,MAPPAARLALLSAAALTLAARPAPSPGLGPECFTANGADYRGTQNWTALQGGKPCLFWNETFQHPYNTLKYPNGEGGLGEHNYCRNPDGDVSPWCYVAEHEDGVYWKYCEIPACQMPGNLGCYKDHGNPPPLTGTSKTSNKLTIQTCISFCRSQRFKFAGMESGYACFCGNNPDYWKYGEAASTECNSVCFGDHTQPCGGDGRIILFDTLVGACGGNYSAMSSVVYSPDFPDTYATGRVCYWTIRVPGASHIHFSFPLFDIRDSADMVELLDGYTHRVLARFHGRSRPPLSFNVSLDFVILYFFSDRINQSQGFAVLYQAVKEELPQERPAVNQTVAEVITEQANLSVSAARSSKVLYVITTSPSHPPQTVPGSNSWAPPMGAGSHRVEGWTVYGLATLLILTVTAIVAKILLHVTFKSHRVPASGDLRDCHQPGTSGEIWSIFYKPSTSISIFKKKLKGQSQQDDRNPLVSD [A311S]
